Our source for the EC50 values is patent publication US20210324050A1 (published 2021).

Assay [1] has as its target T1, GII.4 Sydney 2012 shell (S) domain (UniProt P54635 1-221).
T1 chain: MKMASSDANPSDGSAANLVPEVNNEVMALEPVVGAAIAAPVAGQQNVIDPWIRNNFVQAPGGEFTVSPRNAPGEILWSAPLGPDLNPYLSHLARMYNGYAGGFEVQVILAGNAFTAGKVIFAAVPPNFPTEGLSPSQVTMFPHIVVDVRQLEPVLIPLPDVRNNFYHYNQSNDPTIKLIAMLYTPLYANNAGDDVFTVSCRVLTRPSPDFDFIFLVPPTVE
The assay can be described thus: ELISA. On the technique in general: An ELISA detects its analyte on a solid surface through an enzyme-linked reagent.

In assay [2] the target is T2, GII.4 Houston 2002 (ABY27560.1) VLPs (UniProt P54635 1-539). Kind of assay: VLP blockade.
The target in assay [3] is T2, GII.4 Houston 2002 (ABY27560.1) VLPs. The assay can be described thus: ELISA binding.
The target of assay [4] is Glutathione S-transferase (GST)-tagged GII.4 Sydney 2012 P domain dimers. Kind of assay: ELISA.
In the next assay the target is GII.3 (norovirus GII.3). The assay can be described thus: ELISA.
A further assay deals with GII.13 (norovirus GII.13). The assay can be described thus: ELISA.
A further assay has as its target GII.17 (norovirus GII.17). Kind of assay: ELISA.
A further assay deals with GI.3 (norovirus GI.3). The assay can be described thus: ELISA.

B1: NORO-329A (antibody, V domains shown)
VH: QVQLVESGGGLVKPGGSLRLSCAASGFTFSDYYMSWIRQAPGKGLEWISYISSSFGSTDYAGSMKGRFTISRDNAKNSLYLQMNSLRAEDTAVYYCARYNYYGSGSFVFDYWGQGTLVTVSS
VL: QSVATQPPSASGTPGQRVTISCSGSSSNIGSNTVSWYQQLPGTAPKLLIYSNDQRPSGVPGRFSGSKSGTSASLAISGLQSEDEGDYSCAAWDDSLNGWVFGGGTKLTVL
B1 showed a half-maximal effective concentration (EC50) in assay [1] of 35.8 µg/mL.

B2: NORO-115 (antibody, V domains shown)
VH: QVQLVESGGGLVKPGGSLRLSCTASGITISGYYMSWIRQAPGKGLEWIVYINTSGRTIYYADSVKGRFSVSRDNAKESLYLQMDSLTVDDTGIYYCARDRLPASGSHWFHPWGQGTLVTVSS
VL: DIVMTQSPDSLAVSLGGRATINCKSSQSVLYTSDNKNYLAWYQQQPGQPPKLLISWASTRESGVPDRFSGSGSGTDFTLTISNLQAEDVAVYYCQQYYNSPLAFGGGTKVEIK
On to B2, for which the EC50 was 2.3 µg/mL in assay [2], 1.1 µg/mL in assay [3] and 0.1 µg/mL in assay [4].

B3: NORO-303 (antibody, V domains shown)
VH: QVQLVESGGGVVQPGRSLRLSCAASGFIFSSYAMHWVRQAPGKGLEWVAVMSYDGNNKYYADSVKGRFTISRDNSKNTLFLQMNSLRPEDTAVYYCARDCRVGWVFTYGMDVWGQGTLVTVSS
VL: QSALTQPPSASGSPGQSVTISCTGTSSDVGGYNYVSWYQQHPGKAPKLMMYEISKRPSGVPIRFSGSKSGNTASLTVSGLQAEDEADYYCSSYAGTYNCVVFGGGTKLTVL
In the case of B3, the concentration for a half-maximal effect (EC50) in assay [2] is > 100 µg/mL; in assay [4], 6.8 µg/mL.

B4: NORO-312A (antibody, V domains shown)
VH: QVQLVESGGALVKPGESLRLSCAASGFTFSDSYMSWIRQAPGKGLEWVAYISGIMSSTNYADSVKGRFTISRDNGKNSVYLQMNNLRAEDTAVYYCARDAQYCSGGRCYLVFDYWGQGTLVTVSS
VL: QSVLTQPPSVSGAPGQRVTISCTGSSSNIGAGYEVHWYQQLPGAAPKLIIYGNNNRPSGVPDRFSGSKSGTSASLAITGLQADDEADYYCQSYDNRLRVFGGGTKLTVL
In the case of B4, a half-maximal response in assay [1] (EC50) required 9.9 µg/mL.

B5: NORO-315B (antibody, V domains shown)
VH: QVQLVESGGGLVKPGGSLRLSCVASGFTFSDYYMTWFRQTPGRGLEWLSYISAIGGYTEYADSVKSRFIISRDNGKKSLYLQMNSLRAEDSGVYYCAREDCHGTSCYSGDWGQGTLVTVSS
VL: QSVLTQPPSVSGAPGQRVTISCTGSSSNIGAGYDVHWYQQLPGTAPKLLIYHNTNRPSGVPDRFSGSKSGTSAYLTITGLQAEDEADYYCQSYDRSLSKSRVFSGGTKLTVL
On to B5, for which the EC50 amounted to 2.2 µg/mL in assay [2], 0.5 µg/mL in assay [3] and 0.3 µg/mL in assay [4].

B6: NORO-278 (antibody, V domains shown)
VH: QVQLVESGGGVVQPGRSLRLSCAASGFTFSSYGMHWVRQAPGKGLEWVAVISYDGSNKYYADSVKGRFTISRDNSKNTLYLQMNSLRAEDTAVYYCAKVTIIAAADLLDYWGQGTLVTVSS
VL: QSVLTQPPSVSGAPGQRVTISCTGSSSNIGAGYDVHWYQQLPGTAPKLLIYGNSNRPSGVPDRFSGSKSGTSASLAITGLQAEDEADYYCQSYDSSLSGPVVFGGGTKLTVL
On to B6, for which the EC50 is > 100 µg/mL in assay [2], 0.5 µg/mL in assay [3] and 68.5 µg/mL in assay [4].

B7: 202A.1 (antibody, V domains shown)
VH: QVQLVQSGAEVKKPGASVKVSCKASEYTFTGYYLQWVRQAPGHGLEWMGWINPSGGTKYSQKFQGRVTMTRDTSITTVYMELSRLRSDDTAVYYCARDLLRNWGDHDAFDVWGQGTMVTVSS
VL: QSVLTQPPSASETPGQGVTISCSGSSSNIGSNFVCWYQQVPGTAPKLLIYKNNQRPSGVPDRFSGSKSGTSASLAISGLRSEDEADYYCSAWDDSLSGPVFGGGTKLTVL
For B7, the EC50 turned out to be 41 nM with GII.3 and 4 nM with GII.13.

B8: NORO-263 (antibody, V domains shown)
VH: QVQLVESGGGLVKPGGSLRLSCAASGFTLSDYYMSWIRQAPGKGLEWVAYISSSHTSTYYRDSVKGRFTISRDSAKKSLYLQMNSLRVEDTAIYYCARDWVGGRSAYSDHWGQGTLVTVSS
VL: SYELTQPPSVSVSPGQTARITCSGDALPRRPAFWYQQKSGQAPVLVMYDDSKRPSGIPERFSGSSSGTVATLTISGAQVEDEADYHCYSTDSSGKERVFGGGTKLTVL
As to B8, the EC50 in assay [2] turned out to be 2.1 µg/mL; in assay [3], 0.5 µg/mL; in assay [4] it was 0.9 µg/mL.

B9: NORO-256A (antibody, V domains shown)
VH: QVQLVESGGGVVQAGRSLRLSCAASGFTFRSYGMHWVRQAPGKGLEWVAIISYDGGSKYYADSVKGRFTISRDNSKNTLYLQMNSLRVEDTALYYCAKDFLRVYSYGWHSFDIWGLGTLVTVSS
VL: QSVLTQPPSVSAAPGQRVTISCSGSSSNIGTYYVSWYQHLPGTAPKLLIYDNDKRPSGIPDRFSASKSGTSATLDIAGLQTGDEADYYCGTWDLSLTAGWVFGGGTKLTVL
Turning to B9, the EC50 in assay [2] was > 100 µg/mL; in assay [3], 0.4 µg/mL; in assay [1] it was 0.4 µg/mL.

B10: NORO-250B (antibody, V domains shown)
VH: QVQLVESGGGLVKPGGSLTLSCAASGFTFSDYYMNWIRQAPGKRLEWVSYISGIMSSTNYADSVKGRFTISRDTAKKSVYLQMNSLRAEDTAVYYCARATSQGATSYYFDSWGQGTLVTVSS
VL: QSVLTQPPSVSGAPGQRVTISCTGSSSNIGADYDVHWYQQLPGAAPRLLIYADINRPSGVPDRFSGSKSGTSASLAITGLQAEDEADYYCQSYDRSVSGSAVFGGGTKVTVL
B10: the EC50 amounted to 17.9 µg/mL in assay [2], 0.1 µg/mL in assay [3] and 0.1 µg/mL in assay [4].

B11: NORO-317 (antibody, V domains shown)
VH: QVQLVESGGGLVKPGGSLRLSCVASGFTFSDYYISWVRQAPGKGLEWVSYISAINSYTNYADSVRGRFTVSRDNAKKSVFLQMNSLRVDDTAVYYCARDVGGSVRYSSNSNKKSYNYFDPWGQGTLVTVSS
VL: SYELTQPPSVSVSPGQTATITCSGDVLSKEFAYWYQQKPGQAPVLVIYKDNERPSGIPERFSGSTSGTTVTLTISGVLAEDEAHYYCQSVDTRGTYKVFGGGTKLTVL
The molecule B11 registered a half-maximal effective concentration (EC50) in assay [4] of 0.2 µg/mL.

B12: NORO-273A (antibody, V domains shown)
VH: QVQLVQSGAEVKKPGASVKISCKASGYDFTSFPMHWVRLGPGQRLEWMGWISAANGNTKYSQKFQDRFTITRDTSASIVHMELSSLRSEDTAVYYCARGGYSSGLYRYSNYYYGMTVWGQGTLVTVSS
VL: DIVMTQTPLSLSVTPGQPASISCKSSESLLHNDRKTYLFWYLQKPGQPPQLLIFQVSNRFSGVPDRFSGSGSGTDFTLRISRVEAEDVGIYYCLQTTQLPLTFGGGTKVEIK
As to B12, the EC50 in assay [2] came to 5.2 µg/mL.

B13: NORO-123 (antibody, V domains shown)
VH: QVQLVESGGGVVQPGRSLRLSCSTSGFTFSQYPMHWVRQAPGKGLEWVALISYDGMNKYYADSVRGRFTISRDNSENTQYLQMNSLRGDDTAVYYCARVTGDCTGNRCSYWAYYYYGLDVWGQGTLVTVSS
VL: QSALTQPPSASGSPGQSVTISCTGTSSDVGGYKYVSWYQQHPGKAPKLMIYEVTRRPSGVPDRFSGSKSGNTAFLTVSGLQAEDEADYYCGSYAGSTTSGYVFGTGTKVIVL
In the case of B13, the half-maximal effective concentration (EC50) was determined as 2.5 µg/mL in assay [2], 0.6 µg/mL in assay [3] and 6.1 µg/mL in assay [4].

B14: 279A (antibody, V domains shown)
VH: QVQLVESGGGVVQPGRSLRLSCAASGFTFTKYGMHWVRQAPGKGLEWVAFIAYDGSVKYYGDSAKGRFAISRDNPKNTVYLQMNSLRAEDTAVYYCAKVEIHYYSNSLLGMDVWGQGTLVTVSS
VL: QSVLTQPPSASGTPGQRVTISCSGGNSNIGISYVYWYQHLPGTAPKLLISKNNLRPSGVPDRFSASKSGTSASLAISGLRSEDEAEYYCATLDINMTWVFGGGTKLTVL
For the molecule B14, the half-maximal effective concentration (EC50) with GII.3 is 14 nM; with GII.17, 18 nM; with GI.3, 70 nM; with GII.13, 10 nM.

B15: NORO-251A (antibody, V domains shown)
VH: QVQLVESGGGVVQPGRSLRLSCAASGFTFRSYGIHWVRQAPGKGLEWVALISYDGSSKYYADSVKGRFTISRDNSKNTLYLQMNSLRSEDTAVYYCAKVRLTSYSIGWFSFDYWGQGTLVTVSS
VL: QSVLTQPPSVSAAPGQKVTISCSGSSSNIANYYVSWYQQLPGRAPKLLIYDNNKRPSGIPDRISGSKSGTSATLGITGLQTGDEADYYCGTWDTSLSAWVFGGGTKLTVL
Turning to B15, the EC50 is > 100 µg/mL in assay [2], 0.3 µg/mL in assay [3] and 4.1 µg/mL in assay [1].

B16: NORO-296A (antibody, V domains shown)
VH: QVQLVESGGGLVKPGGSLRLSCAASGFTFSEYYMSWVRQAPGKALEWVSYITSSFSSTSYADSVKGRFVISRDNAKNSLYLQMNSLRVEDTAVYYCARYGAEYGSRSFYFLDWGQGTLVTVSS
VL: QSVLTQPPSVSGAPEQRVTISCTGSSSNIGAGYDVHWYQVLPGIAPKLLIYDNNKRPSGVPDRFSGSKSGTSASLAITGLQAEDEADYYCQSYDSRLSSNVVFGGGTKLTVL
For the molecule B16, the EC50 is 3.2 µg/mL in assay [2], 0.1 µg/mL in assay [3] and 12.5 µg/mL in assay [1].

B17: NORO-313.1 (antibody, V domains shown)
VH: QVQLVESGGGLVKPGGSLRLSCAASGFTFSDFYMSWIRQAPGKGLEWVGYISSIAGATNYADSVKGRFTISRDSSKRSLYLQMNSLRVEDTAVYYCARMGRLELERRPHYYYPLDVWGQGTLVTVSS
VL: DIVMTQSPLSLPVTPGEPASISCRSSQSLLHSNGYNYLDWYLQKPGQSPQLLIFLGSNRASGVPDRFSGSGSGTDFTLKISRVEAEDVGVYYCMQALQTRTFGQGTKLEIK
Take B17: the EC50 in assay [2] was determined as 2.1 µg/mL; in assay [3], 0.1 µg/mL; in assay [4] it was 0.8 µg/mL.

The term EC50 denotes the concentration giving half of the maximal effect. Read a high EC50 as lower potency in that assay.
